Key:
[1] = target: T1, AFP158/HLA-A*02:01 complex (human); assay: SPR, crude scFv captured;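 further: Peptide–MHC complex flowed at several concentrations over sensorchip-captured scFv, Kd derived from on- and off-rates obtained from the association and dissociation curves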
T1 construct: biotinylated on the BSP by BirA for ELISA and panning; also called biotinylated AFP158/HLA-A*02:01 complex; Bio-AFP158

[2] = target: T1, AFP158/HLA-A*02:01 complex; assay: SPR; vs AS170036 VL1VH1;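 further: crude scFv captured on sensor chip, peptide–HLA complex flowed over at several concentrations, KD estimated from association and dissociation kinetic rates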
Experimental: The experiment was carried out as follows. The crude scFv protein were captured onto the sensorchip. Different concentrations (320, 160, 40 nM) of AFP158/HLA-A*02:01 complex flowed over the sensorchip surface, and were allowed to bind the antibody fragment for 100 s followed by injection of the running buffer to allow dissociation of the complex. On-rate (kd) and off-rate (kd) were calculated based on association and dissociation curve, and were used to estimate the equilibrium dissociation constant (KD).

Binder	Kd [1] [nM]	Affinity increase [2] [fold]
AS170036 VL1VH1 HL107Q (scFv) scFv: QSALTQPRSVSGSPGQSVTISCAGTSSDVGSENYVSWYQQHPGKAPKLMIYQVNKRASGVPDRFSGSKSGNTASLTISGLQAEDEADYYCASYRSSDHNIVFGGGTKLTVLGGGGSGGGGSGGGGSEVQLVESGGGLVQPGGSLRLSCAASGFTFSSYAMSWVRQAPGKGLEWVSTINSGTGSPYYADSVKGRFTISRDNSKNTLYLQMNSLRAEDTAVYYCAKNFFDGSWFQGPPAMDYWGQGTLVTVSSHHHHHH	1600	0.2
AS170036 VL1VH1 HP58G (scFv) scFv: QSALTQPRSVSGSPGQSVTISCAGTSSDVGSENYVSWYQQHPGKAPKLMIYQVNKRASGVPDRFSGSKSGNTASLTISGLQAEDEADYYCASYRSSDHNIVFGGGTKLTVLGGGGSGGGGSGGGGSEVQLVESGGGLVQPGGSLRLSCAASGFTFSSYAMSWVRQAPGKGLEWVSTINSGTGSGYYADSVKGRFTISRDNSKNTLYLQMNSLRAEDTAVYYCAKNFFDGSWFLGPPAMDYWGQGTLVTVSSHHHHHH	320	0.9
AS170036 VL1VH1 HP58F (scFv) scFv: QSALTQPRSVSGSPGQSVTISCAGTSSDVGSENYVSWYQQHPGKAPKLMIYQVNKRASGVPDRFSGSKSGNTASLTISGLQAEDEADYYCASYRSSDHNIVFGGGTKLTVLGGGGSGGGGSGGGGSEVQLVESGGGLVQPGGSLRLSCAASGFTFSSYAMSWVRQAPGKGLEWVSTINSGTGSFYYADSVKGRFTISRDNSKNTLYLQMNSLRAEDTAVYYCAKNFFDGSWFLGPPAMDYWGQGTLVTVSSHHHHHH	1700	0.2
AS170036 VL1VH1 HP58M (scFv) scFv: QSALTQPRSVSGSPGQSVTISCAGTSSDVGSENYVSWYQQHPGKAPKLMIYQVNKRASGVPDRFSGSKSGNTASLTISGLQAEDEADYYCASYRSSDHNIVFGGGTKLTVLGGGGSGGGGSGGGGSEVQLVESGGGLVQPGGSLRLSCAASGFTFSSYAMSWVRQAPGKGLEWVSTINSGTGSMYYADSVKGRFTISRDNSKNTLYLQMNSLRAEDTAVYYCAKNFFDGSWFLGPPAMDYWGQGTLVTVSSHHHHHH	1500	0.2
AS170036 VL1VH1 HP58W (scFv) scFv: QSALTQPRSVSGSPGQSVTISCAGTSSDVGSENYVSWYQQHPGKAPKLMIYQVNKRASGVPDRFSGSKSGNTASLTISGLQAEDEADYYCASYRSSDHNIVFGGGTKLTVLGGGGSGGGGSGGGGSEVQLVESGGGLVQPGGSLRLSCAASGFTFSSYAMSWVRQAPGKGLEWVSTINSGTGSWYYADSVKGRFTISRDNSKNTLYLQMNSLRAEDTAVYYCAKNFFDGSWFLGPPAMDYWGQGTLVTVSSHHHHHH	2700	0.1
AS170036 VL1VH1 HP58N (scFv) scFv: QSALTQPRSVSGSPGQSVTISCAGTSSDVGSENYVSWYQQHPGKAPKLMIYQVNKRASGVPDRFSGSKSGNTASLTISGLQAEDEADYYCASYRSSDHNIVFGGGTKLTVLGGGGSGGGGSGGGGSEVQLVESGGGLVQPGGSLRLSCAASGFTFSSYAMSWVRQAPGKGLEWVSTINSGTGSNYYADSVKGRFTISRDNSKNTLYLQMNSLRAEDTAVYYCAKNFFDGSWFLGPPAMDYWGQGTLVTVSSHHHHHH	1500	0.2
AS170036 VL1VH1 HP58R (scFv) scFv: QSALTQPRSVSGSPGQSVTISCAGTSSDVGSENYVSWYQQHPGKAPKLMIYQVNKRASGVPDRFSGSKSGNTASLTISGLQAEDEADYYCASYRSSDHNIVFGGGTKLTVLGGGGSGGGGSGGGGSEVQLVESGGGLVQPGGSLRLSCAASGFTFSSYAMSWVRQAPGKGLEWVSTINSGTGSRYYADSVKGRFTISRDNSKNTLYLQMNSLRAEDTAVYYCAKNFFDGSWFLGPPAMDYWGQGTLVTVSSHHHHHH	1200	0.2
AS170036 VL1VH1 HL107V (scFv) scFv: QSALTQPRSVSGSPGQSVTISCAGTSSDVGSENYVSWYQQHPGKAPKLMIYQVNKRASGVPDRFSGSKSGNTASLTISGLQAEDEADYYCASYRSSDHNIVFGGGTKLTVLGGGGSGGGGSGGGGSEVQLVESGGGLVQPGGSLRLSCAASGFTFSSYAMSWVRQAPGKGLEWVSTINSGTGSPYYADSVKGRFTISRDNSKNTLYLQMNSLRAEDTAVYYCAKNFFDGSWFVGPPAMDYWGQGTLVTVSSHHHHHH	2500	0.1
AS170036 VL1VH1 HL107S (scFv) scFv: QSALTQPRSVSGSPGQSVTISCAGTSSDVGSENYVSWYQQHPGKAPKLMIYQVNKRASGVPDRFSGSKSGNTASLTISGLQAEDEADYYCASYRSSDHNIVFGGGTKLTVLGGGGSGGGGSGGGGSEVQLVESGGGLVQPGGSLRLSCAASGFTFSSYAMSWVRQAPGKGLEWVSTINSGTGSPYYADSVKGRFTISRDNSKNTLYLQMNSLRAEDTAVYYCAKNFFDGSWFSGPPAMDYWGQGTLVTVSSHHHHHH	4100	0.1
AS170036 VL1VH1 HP58V (scFv) scFv: QSALTQPRSVSGSPGQSVTISCAGTSSDVGSENYVSWYQQHPGKAPKLMIYQVNKRASGVPDRFSGSKSGNTASLTISGLQAEDEADYYCASYRSSDHNIVFGGGTKLTVLGGGGSGGGGSGGGGSEVQLVESGGGLVQPGGSLRLSCAASGFTFSSYAMSWVRQAPGKGLEWVSTINSGTGSVYYADSVKGRFTISRDNSKNTLYLQMNSLRAEDTAVYYCAKNFFDGSWFLGPPAMDYWGQGTLVTVSSHHHHHH	1200	0.2
AS170036 VL1VH1 HP58H (scFv) scFv: QSALTQPRSVSGSPGQSVTISCAGTSSDVGSENYVSWYQQHPGKAPKLMIYQVNKRASGVPDRFSGSKSGNTASLTISGLQAEDEADYYCASYRSSDHNIVFGGGTKLTVLGGGGSGGGGSGGGGSEVQLVESGGGLVQPGGSLRLSCAASGFTFSSYAMSWVRQAPGKGLEWVSTINSGTGSHYYADSVKGRFTISRDNSKNTLYLQMNSLRAEDTAVYYCAKNFFDGSWFLGPPAMDYWGQGTLVTVSSHHHHHH	1000	0.3
AS170036 VL1VH1 HP58D (scFv) scFv: QSALTQPRSVSGSPGQSVTISCAGTSSDVGSENYVSWYQQHPGKAPKLMIYQVNKRASGVPDRFSGSKSGNTASLTISGLQAEDEADYYCASYRSSDHNIVFGGGTKLTVLGGGGSGGGGSGGGGSEVQLVESGGGLVQPGGSLRLSCAASGFTFSSYAMSWVRQAPGKGLEWVSTINSGTGSDYYADSVKGRFTISRDNSKNTLYLQMNSLRAEDTAVYYCAKNFFDGSWFLGPPAMDYWGQGTLVTVSSHHHHHH	660	0.4
AS170036 VL1VH1 HP58A (scFv) scFv: QSALTQPRSVSGSPGQSVTISCAGTSSDVGSENYVSWYQQHPGKAPKLMIYQVNKRASGVPDRFSGSKSGNTASLTISGLQAEDEADYYCASYRSSDHNIVFGGGTKLTVLGGGGSGGGGSGGGGSEVQLVESGGGLVQPGGSLRLSCAASGFTFSSYAMSWVRQAPGKGLEWVSTINSGTGSAYYADSVKGRFTISRDNSKNTLYLQMNSLRAEDTAVYYCAKNFFDGSWFLGPPAMDYWGQGTLVTVSSHHHHHH	380	0.7
AS170036 VL1VH1 HL107T (scFv) scFv: QSALTQPRSVSGSPGQSVTISCAGTSSDVGSENYVSWYQQHPGKAPKLMIYQVNKRASGVPDRFSGSKSGNTASLTISGLQAEDEADYYCASYRSSDHNIVFGGGTKLTVLGGGGSGGGGSGGGGSEVQLVESGGGLVQPGGSLRLSCAASGFTFSSYAMSWVRQAPGKGLEWVSTINSGTGSPYYADSVKGRFTISRDNSKNTLYLQMNSLRAEDTAVYYCAKNFFDGSWFTGPPAMDYWGQGTLVTVSSHHHHHH	2800	0.1
AS170036 VL1VH1 HP58E (scFv) scFv: QSALTQPRSVSGSPGQSVTISCAGTSSDVGSENYVSWYQQHPGKAPKLMIYQVNKRASGVPDRFSGSKSGNTASLTISGLQAEDEADYYCASYRSSDHNIVFGGGTKLTVLGGGGSGGGGSGGGGSEVQLVESGGGLVQPGGSLRLSCAASGFTFSSYAMSWVRQAPGKGLEWVSTINSGTGSEYYADSVKGRFTISRDNSKNTLYLQMNSLRAEDTAVYYCAKNFFDGSWFLGPPAMDYWGQGTLVTVSSHHHHHH	600	0.5
AS170036 VL1VH1 HP58S (scFv) scFv: QSALTQPRSVSGSPGQSVTISCAGTSSDVGSENYVSWYQQHPGKAPKLMIYQVNKRASGVPDRFSGSKSGNTASLTISGLQAEDEADYYCASYRSSDHNIVFGGGTKLTVLGGGGSGGGGSGGGGSEVQLVESGGGLVQPGGSLRLSCAASGFTFSSYAMSWVRQAPGKGLEWVSTINSGTGSSYYADSVKGRFTISRDNSKNTLYLQMNSLRAEDTAVYYCAKNFFDGSWFLGPPAMDYWGQGTLVTVSSHHHHHH	780	0.3
AS170036 VL1VH1 HP58Q (scFv) scFv: QSALTQPRSVSGSPGQSVTISCAGTSSDVGSENYVSWYQQHPGKAPKLMIYQVNKRASGVPDRFSGSKSGNTASLTISGLQAEDEADYYCASYRSSDHNIVFGGGTKLTVLGGGGSGGGGSGGGGSEVQLVESGGGLVQPGGSLRLSCAASGFTFSSYAMSWVRQAPGKGLEWVSTINSGTGSQYYADSVKGRFTISRDNSKNTLYLQMNSLRAEDTAVYYCAKNFFDGSWFLGPPAMDYWGQGTLVTVSSHHHHHH	500	0.5
AS170036 VL1VH1 HP58K (scFv) scFv: QSALTQPRSVSGSPGQSVTISCAGTSSDVGSENYVSWYQQHPGKAPKLMIYQVNKRASGVPDRFSGSKSGNTASLTISGLQAEDEADYYCASYRSSDHNIVFGGGTKLTVLGGGGSGGGGSGGGGSEVQLVESGGGLVQPGGSLRLSCAASGFTFSSYAMSWVRQAPGKGLEWVSTINSGTGSKYYADSVKGRFTISRDNSKNTLYLQMNSLRAEDTAVYYCAKNFFDGSWFLGPPAMDYWGQGTLVTVSSHHHHHH	860	0.3
AS170036 VL1VH1 HP58T (scFv) scFv: QSALTQPRSVSGSPGQSVTISCAGTSSDVGSENYVSWYQQHPGKAPKLMIYQVNKRASGVPDRFSGSKSGNTASLTISGLQAEDEADYYCASYRSSDHNIVFGGGTKLTVLGGGGSGGGGSGGGGSEVQLVESGGGLVQPGGSLRLSCAASGFTFSSYAMSWVRQAPGKGLEWVSTINSGTGSTYYADSVKGRFTISRDNSKNTLYLQMNSLRAEDTAVYYCAKNFFDGSWFLGPPAMDYWGQGTLVTVSSHHHHHH	750	0.4

From patent US20240279318A1 (NANJING LEGEND BIOTECH, published 2024)
